Test results from patent US20020103123A1.
One block for each binder: values may come before it. Ends that are not written are not given here.

Legend:
[1] = molecular target: T1, rat hypothalamic Y5 receptor (rat)
T1 sequence: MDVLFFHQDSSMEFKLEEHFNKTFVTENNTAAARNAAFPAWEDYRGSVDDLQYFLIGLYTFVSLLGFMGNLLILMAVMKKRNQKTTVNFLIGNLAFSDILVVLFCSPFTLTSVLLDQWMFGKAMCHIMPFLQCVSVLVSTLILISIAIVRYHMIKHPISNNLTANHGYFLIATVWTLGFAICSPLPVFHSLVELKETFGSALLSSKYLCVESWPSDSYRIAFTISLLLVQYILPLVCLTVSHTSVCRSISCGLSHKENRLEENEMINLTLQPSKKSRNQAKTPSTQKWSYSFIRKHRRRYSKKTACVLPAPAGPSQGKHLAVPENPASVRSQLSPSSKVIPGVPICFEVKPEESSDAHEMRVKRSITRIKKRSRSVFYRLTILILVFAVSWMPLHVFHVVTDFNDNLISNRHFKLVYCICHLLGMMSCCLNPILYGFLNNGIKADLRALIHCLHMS

[2] = molecular target: T2, rat Y4 receptor (rat), Q63447; assay: 125I-PYY displacement, COS-7 membranes; conditions: remark: other sources report otherwise
T2 chain: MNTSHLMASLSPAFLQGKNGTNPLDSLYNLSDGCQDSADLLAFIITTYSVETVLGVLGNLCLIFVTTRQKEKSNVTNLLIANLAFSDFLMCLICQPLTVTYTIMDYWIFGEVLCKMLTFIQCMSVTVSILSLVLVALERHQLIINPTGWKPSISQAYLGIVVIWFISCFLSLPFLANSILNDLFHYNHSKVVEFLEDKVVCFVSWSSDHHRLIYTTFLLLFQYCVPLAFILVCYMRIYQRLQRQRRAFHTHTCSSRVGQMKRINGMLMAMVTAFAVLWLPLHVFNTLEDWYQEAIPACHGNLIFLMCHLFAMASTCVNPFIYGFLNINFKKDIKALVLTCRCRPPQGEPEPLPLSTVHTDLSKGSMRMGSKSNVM

[3] = molecular target: human hippocampal Y5 receptor (human)
[4] = molecular target: T3, rat Y2 receptor (rat), Q9ERC0; assay: 125I-PYY displacement, COS-7 membranes; conditions: remark: other sources report otherwise
T3 chain: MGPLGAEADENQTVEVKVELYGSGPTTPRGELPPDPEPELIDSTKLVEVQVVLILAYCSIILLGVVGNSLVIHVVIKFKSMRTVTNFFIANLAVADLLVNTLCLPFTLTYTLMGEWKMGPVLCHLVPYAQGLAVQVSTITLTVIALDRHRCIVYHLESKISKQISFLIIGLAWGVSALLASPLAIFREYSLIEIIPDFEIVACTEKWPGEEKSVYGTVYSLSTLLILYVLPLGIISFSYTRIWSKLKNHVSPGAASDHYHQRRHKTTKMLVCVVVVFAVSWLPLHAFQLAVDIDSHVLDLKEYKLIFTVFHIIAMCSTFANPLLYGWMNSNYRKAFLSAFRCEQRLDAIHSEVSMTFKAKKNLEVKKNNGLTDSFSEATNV

[5] = molecular target: T1, rat hypothalamic Y5 receptor (rat); remark: listed apart in the source

Sequence of human hippocampal Y5 receptor (human) (chain, as listed by the source): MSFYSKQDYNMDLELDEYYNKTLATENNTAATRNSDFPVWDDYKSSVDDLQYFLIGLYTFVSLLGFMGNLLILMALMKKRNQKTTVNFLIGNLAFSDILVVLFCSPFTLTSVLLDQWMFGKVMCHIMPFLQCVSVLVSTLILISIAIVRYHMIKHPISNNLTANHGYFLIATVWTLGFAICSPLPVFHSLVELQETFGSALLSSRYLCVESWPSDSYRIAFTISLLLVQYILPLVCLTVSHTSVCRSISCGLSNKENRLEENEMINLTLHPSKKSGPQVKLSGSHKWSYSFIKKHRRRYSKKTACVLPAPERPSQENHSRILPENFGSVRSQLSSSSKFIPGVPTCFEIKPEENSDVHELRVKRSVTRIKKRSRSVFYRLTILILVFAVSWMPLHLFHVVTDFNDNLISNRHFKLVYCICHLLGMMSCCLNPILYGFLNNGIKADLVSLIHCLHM

B2: porcine NPY13-36, P01304 (peptide)
peptide: PAEDLARYYSALRHYINLITRQRY
modifications: ends and bridges not checked
Ki [2]: 140 nM

B3: bovine PP (peptide)
peptide: APLEPEYPGDNATPEQMAQYAAELRRYINMLTRPRY
inhibition of forskolin-stimulated cAMP accumulation, EC50 [3]: 4 nM | inhibition of forskolin-stimulated cAMP accumulation, EC50 [1]: 5.7 nM

B5: FLRF-amide (peptide)
peptide: FLRF-NH2
maximal suppression of cAMP relative to that produced by human NPY [5]: 42% | inhibition of forskolin-stimulated cAMP accumulation, EC50 [1]: 13000 nM

Results, then the binder that gave them:

inhibition of forskolin-stimulated cAMP accumulation, EC50 [1]: 130 nM
B1: rat PP (peptide)
peptide: APLEPMYPGDYATHEQRAQYETQLRRYINTLTRPRY

Ki [4]: > 830 nM
B4: porcine NPY26-36, P01304 (peptide)
peptide: HYINLITRQRY
modifications: ends and bridges not checked
